Laboratory results: patent US20260151494A1
Substitutions are numbered along the chain they refer to.

B1: CD71-binding FN3 domain of SEQ ID NO: 336 (designed binder, not shown: small tags and cut ends)
chain: MSLPAPKNLVVSRVTEDSARLSWTAPDAAFDSFNIMYHEHYDNGEAIVLTVPGSERSYDLTGLKPGTEYSVVINGVKGGPHSAPLSAIFTT
B2: CD71-binding FN3 domain of SEQ ID NO: 338 (designed binder, not shown: small tags and cut ends)
chain: MSLPAPKNLVVSRVTEDSARLSWTAPDAAFDSFEIGYFENLYLGEAIVLTVPGSERSYDLTGLKPGTEYCVYICGVKGGRDSMPLSAIFTT
B3: CD71-binding FN3 domain of SEQ ID NO: 345 (designed binder, not shown: small tags and cut ends)
chain: B2 chain with R20H, L41D, L43F, C70V, Y72F, C74G, R80K, D81W, M83A
B4: CD71-binding FN3 domain of SEQ ID NO: 340 (designed binder, not shown: small tags and cut ends)
chain: B2 chain with A19S, C70W, Y72Q, C74G, R80N, D81W, M83A
B5: CD71-binding FN3 domain of SEQ ID NO: 339 (designed binder, not shown: small tags and cut ends)
chain: B2 chain with F38W, N40M, L41S, L43Y, C70G, Y72S, C74G, D81W, M83L
B6: CD71-binding FN3 domain of SEQ ID NO: 344 (designed binder, not shown: small tags and cut ends)
chain: B2 chain with V10F, F38W, L41A, L43K, C70W, Y72Q, C74G, R80N, D81W, M83A
B7: CD71-binding FN3 domain of SEQ ID NO: 335 (designed binder, not shown: small tags and cut ends)
chain: MSLPAPKNLVVSRVTEDSARLSWTAPDAAFDSFFIGYLEPQPPGEAIDLYVPGSERSYDLTGLKPGTEYNVTIQGVKGGFPSLPLVATFTT
B8: CD71-binding FN3 domain of SEQ ID NO: 341 (designed binder, not shown: small tags and cut ends)
chain: B7 chain with D48E, T88I
B9: CD71-binding FN3 domain of SEQ ID NO: 342 (designed binder, not shown: small tags and cut ends)
chain: B7 chain with D48V, Y50T, L83E, V86I, T88N
B10: CD71-binding FN3 domain of SEQ ID NO: 337 (designed binder, not shown: small tags and cut ends)
chain: B7 chain with D48H, L83I, V86I, T88S
B11: CD71-binding FN3 domain of SEQ ID NO: 343 (designed binder, not shown: small tags and cut ends)
chain: B7 chain with D48A, Y50W, L83E
B12: CD71-binding FN3 domain of SEQ ID NO: 334 (designed binder, not shown: small tags and cut ends)
chain: MSLPAPKNLVVSRVTEDSARLSWTAPDAAFDSFEIAYQELSLWGEAIVLTVPGSERSYDLTGLKPGTEYWVQIGGVKGGIWSSPLVASFTT

What follows are binders tested against human serum albumin (human) (UniProt P02768) (assay: primary ELISA screen, HSA negative control).
Chain of human serum albumin (human) (P02768 25-609 limits assumed): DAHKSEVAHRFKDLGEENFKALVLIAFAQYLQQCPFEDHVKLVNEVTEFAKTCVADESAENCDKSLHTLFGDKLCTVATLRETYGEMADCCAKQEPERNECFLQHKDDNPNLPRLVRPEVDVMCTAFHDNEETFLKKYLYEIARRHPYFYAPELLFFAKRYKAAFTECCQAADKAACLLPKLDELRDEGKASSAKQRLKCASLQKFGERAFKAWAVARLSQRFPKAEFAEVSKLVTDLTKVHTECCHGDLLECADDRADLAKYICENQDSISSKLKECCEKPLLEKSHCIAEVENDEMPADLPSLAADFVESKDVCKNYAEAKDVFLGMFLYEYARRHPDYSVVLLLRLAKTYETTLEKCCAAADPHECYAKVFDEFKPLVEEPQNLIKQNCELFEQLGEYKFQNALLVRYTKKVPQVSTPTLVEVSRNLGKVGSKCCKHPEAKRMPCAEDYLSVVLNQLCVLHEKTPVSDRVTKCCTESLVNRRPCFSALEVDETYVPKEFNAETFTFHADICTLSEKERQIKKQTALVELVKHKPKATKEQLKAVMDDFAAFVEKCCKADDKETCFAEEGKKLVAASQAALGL

RLU | Binder
16800 RLU | B1
40200 RLU | B2
23600 RLU | B3
28300 RLU | B4
7050 RLU | B5
36900 RLU | B6
57300 RLU | B7
58000 RLU | B8
425000 RLU | B9
17200 RLU | B10
30400 RLU | B11
14400 RLU | B12
